Measurements: publication PMC3084833

What was measured:
[1] = target: ΔCT-PxxP bestrophin-1 (human bestrophin-1 lacking the C-terminal proline-rich region between 462 and 575) (human) (UniProt O76090); test: co-IP; HEK-293 cells co-transfected with wild-type or ΔCTPxxP bestrophin-1 and β3- or His-tagged β4-subunits; IP with anti-bestrophin-1 antibody, blot anti-β3, or IP with anti-His antibody, blot anti-bestrophin-1; relative co-precipitation efficiency by densitometry of lysate, precipitate and non-bound fraction
[2] = target: calcium channel, voltage-dependent, β4-subunit, His6-tagged (rat, β4-pCDNA3) (Rattus norvegicus) (UniProt D4A055); test: as above

calcium channel, voltage-dependent, β3-subunit (rat, untagged, β3-pCMV) (from UniProt P54287 1-484) (natural protein)
co-precipitation efficiency [1]: 4%

ΔCT-PxxP bestrophin-1 (human bestrophin-1 lacking the C-terminal proline-rich region between 462 and 575) (from UniProt O76090-1 1-585) (natural protein)
co-precipitation efficiency [2]: 4%
